Experimental data published in patent publication US20230090502.

Biological target: Uncleaved SARS-CoV-2 3CLpro (N-terminal 6xHIS-tag followed by TEV-protease cleavage site)

B1: TEV-protease (New England Biolabs, includes a HIS-tag) (protein)
chain: GESLFKGPRDYNPISSTICHLTNESDGHTTSLYGIGFGPFIITNKHLFRRNNGTLLVQSLHGVFKVKNTTTLQQHLIDGRDMIIIRMPKDFPPFPQKLKFREPQREERICLVTTNFQTKSMSSMVSDTSCTFPSSDGIFWKHWIQTKDGQCGSPLVSTRDGFIVGIHSASNFTNTNNYFTSVPKNFMELLTNQEAQQWVSGWRLNADSVLWGGHKVFMSKPEEPFQPVKEATQLMNELVYSQ
- cleavage of the HIS-tag, SDS-PAGE: Cleavage of the 3CLpro was successful
